Results published in patent US20180237490A1 (HANMI PHARM, published 2018).
Positions of bridges follow the written chain, without caps; N, C: chain ends. Non-standard residues stand in square brackets, D forms with d. No end group written: not given here. *: point of attachment. Acetyl(2-(4-imidazolyl)) = O=C(Cc1c[nH]cn1)*; Aib = CC(C)(N)C(=O)O

Experiments:
Assay in all cases: cell-based or functional assay
[1] = molecular target: human GLP-1 receptor (human) (UniProt P43220)
[2] = molecular target: human glucagon receptor (human) (UniProt P47871)
human glucagon receptor = human glucagon receptor (human, UniProt P47871 26-477)
human glucagon receptor, sequence (P47871 26-477): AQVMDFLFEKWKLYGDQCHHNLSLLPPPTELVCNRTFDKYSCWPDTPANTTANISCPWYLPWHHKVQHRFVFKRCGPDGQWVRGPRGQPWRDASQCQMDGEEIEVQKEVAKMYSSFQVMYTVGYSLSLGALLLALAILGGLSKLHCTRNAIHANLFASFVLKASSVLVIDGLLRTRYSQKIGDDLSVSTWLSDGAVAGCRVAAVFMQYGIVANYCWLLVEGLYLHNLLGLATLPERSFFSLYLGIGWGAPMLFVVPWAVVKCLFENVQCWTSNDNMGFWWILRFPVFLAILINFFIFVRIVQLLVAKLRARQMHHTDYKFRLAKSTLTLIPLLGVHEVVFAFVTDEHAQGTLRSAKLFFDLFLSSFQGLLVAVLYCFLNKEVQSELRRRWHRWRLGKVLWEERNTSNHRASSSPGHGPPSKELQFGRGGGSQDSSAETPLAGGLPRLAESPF

human GLP-1 receptor (human), sequence (P43220 24-463): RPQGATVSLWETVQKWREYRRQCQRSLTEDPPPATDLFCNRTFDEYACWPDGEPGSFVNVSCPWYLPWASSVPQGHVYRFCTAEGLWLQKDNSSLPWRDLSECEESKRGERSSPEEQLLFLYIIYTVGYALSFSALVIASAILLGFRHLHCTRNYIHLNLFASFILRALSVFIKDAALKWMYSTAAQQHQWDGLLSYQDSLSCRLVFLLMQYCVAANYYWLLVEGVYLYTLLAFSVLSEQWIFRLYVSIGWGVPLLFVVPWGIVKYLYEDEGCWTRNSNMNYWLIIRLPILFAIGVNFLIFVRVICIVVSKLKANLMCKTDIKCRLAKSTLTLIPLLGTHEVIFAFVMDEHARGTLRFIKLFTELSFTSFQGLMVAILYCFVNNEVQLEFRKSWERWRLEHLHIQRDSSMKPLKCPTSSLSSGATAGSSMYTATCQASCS
human glucagon receptor (human), sequence (P47871 26-477): as the sequence (P47871 26-477) above

B1: oxyntomodulin analog (SEQ ID NO: 3) (peptide)
peptide: [Acetyl(2-(4-imidazolyl))]SQGTFTSDYSKYLDERRAQDFVAWLKNTGPSSGAPPPS
Work on B1 yielded an EC50 (nM), cAMP, CHO/GLP-1R [1] greater than 1000 nM and an EC50 (nM), cAMP, CHO/GCGR [2] of 638 nM.

B2: oxyntomodulin analog (SEQ ID NO: 24) (peptide)
peptide: H[Aib]QGTFTSDYSKYLDEKRAKEFVQWLMNTC
With B2 the “EC50 (nM), cAMP, CHO/GCGR” value (human glucagon receptor) was 6.95 nM.

B3: oxyntomodulin analog (SEQ ID NO: 34) (peptide)
peptide: Y[Aib]QGTFTSDYSKYLDEKRAKEFVQWLMNTC
modifications: bridge 16-20
In the case of B3, the “EC50 (nM), cAMP, CHO/GCGR” value (human glucagon receptor) is reported as 1.04 nM.

B4: oxyntomodulin analog (SEQ ID NO: 8) (peptide)
peptide: [Acetyl(2-(4-imidazolyl))]SQGTFTSDLSRQLEEEAVRLFIEWLMNK
B4 gave an EC50 (nM), cAMP, CHO/GLP-1R [1] of 420 nM and an EC50 (nM), cAMP, CHO/GCGR [2] greater than 1000 nM.

B5: oxyntomodulin analog (SEQ ID NO: 18) (peptide)
peptide: [Acetyl(2-(4-imidazolyl))]SQGTFTSDYSRYLDEEAVRLFIEWIRNGGPSSGAPPPSK
In the case of B5, the EC50 (nM), cAMP, CHO/GLP-1R [1] is reported as 96.3 nM and the EC50 (nM), cAMP, CHO/GCGR [2] is reported as greater than 1000 nM.

B6: oxyntomodulin analog (SEQ ID NO: 25) (peptide)
peptide: H[Aib]QGTFTSDYSKYLDEKRAKEFVQWLMNTC
modifications: bridge 16-20
With B6 the “EC50 (nM), cAMP, CHO/GCGR” value (human glucagon receptor) was 1.3 nM.
